Experimental data reported in patent US9329180B2, “Preparation of anti-PEG antibody expressing cell and application thereof” (KAOHSIUNG MEDICAL UNIVERSITY, priority 2010, dated 2016).

Experiments:
[1] = 3T3/15-2 cell-based or 15-2 antibody-based sandwich ELISA (AGP4-biotin detection); format: binding; details: cell-based versus antibody-based capture
Experimental: Anti-methoxyl-PEG cells were used as a platform to establish a sandwich ELISA to quantify all kinds of free methoxyl-PEG molecules. 3T3/15-2 cells were seeded into a 96 wells plate. After that, the methoxyl-PEG was added as an analyte, and then a biotinylated anti-PEG antibody (AGP4-Biotin) was used as a detecting antibody. Finally, streptavidin-HRP was added into the 96 wells plate. After adequate washing, the concentration of methoxyl-PEG was known by observing the color intensity of the matrix coated on the 96 wells plate. With existence of serum, this method can quantify all kinds of free methoxyl-PEG molecules (CH3O-PEG2K and CH3O-PEG5K), and the sensitivity was better than using 3T3/AGP3 platform. Therefore, the sandwich ELISA method using 3T3/15-2 platform can sensitively quantify all kinds of methoxyl-PEG molecules.
To test whether 3T3/15-2 cell-based or 15-2 antibody-based sandwich ELISA could be used to quantify CH3O-PEG molecules, CH3O-PEG (1K, 2K, 5K, and 20K Da) or Lipo-Dox (liposomal doxorubicin conjugated with CH3O-PEG2K) was added to 3T3/15-2 cell or 15-2 antibody coated 96 well/plates, respectively. Captured mPEG molecules were then quantified by sequential addition of biotinylated AGP4 antibody (AGP4-biotin), streptavidin-conjugated horseradish peroxidase (streptavidin-HRP) and ABTS substrate. […] The sensitivity depended on the length of the PEG chain. […]

[2] = tested on: Lipo-Dox (liposomal doxorubicin conjugated with CH3O-PEG2K); test: as above; format: binding; details: cell-based versus antibody-based capture
Experimental: To test whether 3T3/15-2 cell-based or 15-2 antibody-based sandwich ELISA could be used to quantify CH3O-PEG molecules, CH3O-PEG (1K, 2K, 5K, and 20K Da) or Lipo-Dox (liposomal doxorubicin conjugated with CH3O-PEG2K) was added to 3T3/15-2 cell or 15-2 antibody coated 96 well/plates, respectively. Captured mPEG molecules were then quantified by sequential addition of biotinylated AGP4 antibody (AGP4-biotin), streptavidin-conjugated horseradish peroxidase (streptavidin-HRP) and ABTS substrate. […] The sensitivity depended on the length of the PEG chain. CH3O-PEG5K and CH3O-PEG2K could be effectively detected at concentrations as low as 1 nM, respectively.

[3] = Direct binding of PEG5K-biotin, AGP3 antibody-based and 3T3/AGP3 cell-based ELISA; details: streptavidin-HRP and ABTS, 405 nm
Experimental: (§1) To further investigate the potential mechanism that dictates the differential ability in detecting PEG by the cell surface-expressed anti-PEG antibody and coated AGP3 antibody, the present invention compared direct binding of PEG5K-biotin (FIG. 8A) or PEG5K-^131I (FIGS. 8B and 8C) to AGP3 antibody and 3T3/AGP3 cells precoated in 96-well plates.
The 3T3/AGP3 and 3T3/DNS cells (2×10^5 cells/well) were seeded overnight in 96-well plates in culture medium. After extensive washing, captures were fixed by 1% paraformaldehy for 3 min. Plates were blocked with 5% skim milk in PBS for 2 hours at 37° C. PEG5K-biotin was serially diluted and added to the cells at room temperature for 1 h. After washing, streptavidin-HRP and ABTS were sequentially added to the plates to quantify the captured PEG5K-biotin. Color development was measured at 405 nm on a microplate reader. Using this method, the detection limit of PEG5K-biotin in the 3T3/AGP3 cell-based ELISA was 15.6 ng/mL (FIG. 8A).

[4] = Direct binding of PEG5K-131I to AGP3 antibody-coated and 3T3/AGP3 cell-coated plates (γ counter)
Experimental: as §1
The 3T3/AGP3 and 3T3/DNS cells (2×10^5 cells/well) were seeded overnight in 96-well plates in culture medium. After extensive washing, captures were fixed by 1% paraformaldehy for 3 min. Plates were blocked with 5% skim milk in PBS for 2 hours at 37° C. PEG5K-^131I was serially diluted and added to the cells at room temperature for 1 h. After washing, 1N NaOH was added to elute the bound PEG5K-^131I. The radioactivity of these samples was counted on a γ counter.

Molecule | detection of CH3O-PEG molecules above molecular weight of 2000 Da [1] | detection of Lipo-Dox, apparent avidity [2] | detection limit of PEG5K-biotin [3] | signal intensity per well ([4]; 0.74 μCi/mL PEG5K-131I) | signal intensity per well ([4]; 2.22 μCi/mL PEG5K-131I) | signal intensity per well ([4]; 6.67 μCi/mL PEG5K-131I) | signal intensity per well ([4]; 20 μCi/mL PEG5K-131I)
15-2 antibody: anti-methoxyl-PEG IgG2b antibody; VH SEQ ID NO: 9, VL SEQ ID NO: 10 (antibody, V domains shown, VH domain of 15-2 antibody; VL domain of 15-2 antibody) VH: EVKLEESGGGLVQPGGSMKLSCVASGFTFSNYWMNWVRQSPEKGLEWVTEIRSKSNNYATHYAESVKGRFTISRDDSKGSVYLQMNNLRAEDTGIYYCSNRYYWGQGTLVTVSA VL: DIVMTQSHKFMSTSVRDRVTITCKASQDVNTSVAWYQQKPGQSPKLVIYWASTRHTGVPDRFTGSGSGTDFTLTISNVQSEDLADYFCLQYINYPYTFGGGTKLEIKR | Only 3T3/15-2 cell-based sandwich ELISA could detect | similar, apparent avidities |  |  |  |  | 
AGP3 antibody: monoclonal IgM antibody specific to the PEG backbone; VH SEQ ID NO: 1, VL SEQ ID NO: 2 (antibody, V domains shown, VH domain of AGP3 antibody; VL domain of AGP3 antibody) VH: EVQLVESGGGLVKPGGSLKLSCAASGFTFSDYYMYWVRQTPEKRLEWVATISDDGTYTYYPHSVKGRFTISRDSAKNNLYLQLSSLKSEDTAMYYCARNDARGDYWGQGTSVTVSS VL: DIVLTQAAFSNPVTLGTSASISCRSSKSLLHSNGITYLYWYLQKPGQSPQLLIYQMSNLASGVPDRFSSSGSGTDFTLRISRVEAEDVGVYYCAQNLELFTFGSGTKLEIKR |  |  | failed to detect | 114 | 210 | 245 | 293
